Several values for one entry are separate records, joined by “and”; a condition that tells them apart may be missing. Equal entries are not always repeated.
Columns and labels:
[1] = biological target: SARS-CoV-2 spike South African Δ3 B.1.351 variant on pseudovirus (RVP-724) (SARS-CoV-2) (UniProt P0DTC2); assay: cell-based or functional assay
[2] = biological target: SARS-CoV-2 spike N439K variant on pseudovirus (RVP-703) (SARS-CoV-2) (UniProt P0DTC2); assay: cell-based or functional assay

In the case of “Imdevimab (biosimilar version) (antibody)”, the EC50 (pM) Neutralization, pseudovirus [1] is reported as 2.48 pM and 2.37 pM, the EC50 (pM) Neutralization, pseudovirus [2] is reported as 2260 pM and 2220 pM and the fold less potent than REGN10933, pseudovirus neutralization [2] is reported as 1000 fold.
